Tests used:
mTORC1 and mTORC2 = experiment: Immunoprecipitation of mTOR with raptor and rictor in U87MG cells; assay type: cell-based, human; details: SEMA3F 640 ng/ml, 30 minutes
Experimental: FIG. 29A depicts U87MG cells treated with SEMA3F (640 ng/ml) for 30 minutes and subjected to immunoprecipitation and Western blot analysis with anti-mTOR, -raptor and -rictor as illustrated. FIG. 29B depicts U87MG cells treated with rapamycin (10 nM) or Torin 1 (10 nM) for 30 minutes, prior to SEMA3F (640 ng/ml) treatment for 60 minutes; lysates were analyzed by Western blot. FIG. 29C depicts bar graphs representing densitometric analysis of the illustrated blot showing the fold change in intensity (mean±SD) relative to the untreated control (*, p <0.01; **, p<0.001 vs. untreated control). FIG. 29D depicts U87MG cells transiently transfected with a pcDNA3.1 empty vector or with constitutively active Akt (2DAkt). Cells were treated with SEMA3F (640 ng/ml) and lysates were analyzed by Western blot. All data are representative of 3 independent experiments.
FIGS. 35A-35B depict analysis of the effect of SEMA3F on mTORC2 activity. […] depicts a Western blot. U87MG cells were transiently transfected with a pcDNA3.1 empty vector or with constitutively active Akt (2DAkt). Cells were treated with SEMA3F (640 ng/ml) and lysates were analyzed by Western blot. FIG. 35B depicts a Western blot. U87MG cells were transiently transfected with a pcDNA3.1 empty vector or with 2DAkt. […]

U87MG cells = U87MG cells within 24 hours; reference 6; cited from earlier work
[1] = system: U251 glioblastoma cells, a melanocyte cell line, Jurkat T lymphocytes, and endothelial cells; experiment: Western blot in other cell lines expressing NRP2; assay type: cell-based, human; details: SEMA3F 30 minutes
Experimental: FIGS. 34A-34D depict analysis of intracellular signaling pathway regulated by SEMA3F. FIG. 34A depicts a Western blot of the expression of pAkt, pmTOR and pS6K in U87MG cells treated with SEMA3F or PBS for 60 minutes and. FIG. 34B depicts a Western blot. U87MG cells were transfected with control or Plexin A1-specific siRNA (20 nM). After 48 hours, cells were treated with SEMA3F (640 ng/ml) for 30 and 60 minutes, and were analyzed by Western blot. FIG. 34C depicts NRP2 and Plexin A1 expression analyzed by Western blot with multiple cell lines. FIG. 34D depicts a Western blot of multiple NRP2-expressing cell lines were treated with SEMA3F for 30 minutes. All data presented are representative of 3 independent experiments.
SEMA3F inhibits Akt, mTOR, and S6K phosphorylation. To determine the effect of SEMA3F on intracellular signaling responses, levels of phosphokinases in the NRP2-expressing human glioblastoma cell line U87MG were profiled.
Western blotting: Proteins within each sample were separated by SDS-PAGE and transferred to nitrocellulose membranes. […] After washing with TBS-T, membranes were incubated with the appropriate horseradish peroxidase-conjugated secondary antibody, and immunoreactivity was detected by using ECL detection reagents.

VEGF promoter = VEGF promoter luciferase assay in U87MG cells; assay type: cell-based, human
Experimental: FIGS. 31A-31B depict U87MG cells transiently co-transfected with a full-length human VEGF promoter luciferase plasmid and a pGL4.74 [hRluc/TK] plasmid as an internal control. Cells were treated with SEMA3F (640 ng/ml for 30 minutes) prior to the addition of DFO (250 μM) or the culture of cells in a hypoxia chamber (1% 02). After 18 hours, VEGF promoter luciferase activity was analyzed. FIG. 31C depicts a graph of U87MG cells transiently cotransfected with our VEGF promoter luciferase and pGL4.74 [hRluc/TK] plasmids and with either a pcDNA3.1 empty vector or our constitutively active Akt (2DAkt). The cells were treated with SEMA3F for 30 minutes prior to the addition of DFO. After 18 hours, VEGF promoter luciferase activity was analyzed. FIG. 31D depicts a graph of parental U87MG cells treated with SEMA3F, rapamycin (10 nM), Torin 1 (10 nM) alone or in combination as indicated for 30 minutes prior to the addition of DFO, and culture supernatants were collected after 18 hours; VEGF protein levels were analyzed by ELISA. In each panel data are representative of 3 independent experiments. Bar graphs represent the mean±SD of n=3 experiments performed in triplicate, *, p<0.01 vs. control.
SEMA3F inhibits hypoxia-induced production of VEGF via the mTOR pathway. The local expression and regulation of VEGF is key to many physiological and pathological processes (40, 41). These findings indicate that SEMA3F can target the transcriptional activation of VEGF via its ability to target mTOR kinase activity (36, 42). To test the effect of SEMA3F on the regulation of VEGF expression, U87MG cells were transfected with a full-length 2.6 kb VEGF promoter-luciferase construct and exposed to the hypoxia mimetic agent desferrioxamine (DFO) or hypoxia (1% 02). […] To test the relative effect of SEMA3F on mTORC1/C2, U87MG cells transiently co-transfected with the 2DAkt construct and the full length VEGF promoter reporter construct, and the cells cultured in the absence or presence of SEMA3F. […] Finally, the effect of SEMA3F on the secretion of VEGF into conditioned media (by ELISA) was determined in the absence or presence of DFO.
Transfection and Luciferase assay: U87MG cells were transiently transfected with plasmid constructs (pcDNA3.1, WT mTOR, 2DAkt, VEGF luciferase reporter plasmid or pGL4.74 [hRluc/TK]) as indicated using Lipofectamine 2000 reagent (Life Technologies) according to the manufacturer's instructions. After 18 hours, cells were treated as outlined in each experimental design. VEGF promoter activity was analyzed using a Dual-Luciferase Reporter Assay System (Promega), and luciferase activity was normalized by Renilla luciferase as an internal control.

B1: SEMA3F: Human recombinant full-length His-Myc-tagged SEMA3F, secreted by transfected 293T cells and purified; class 3 semaphorin, NRP-2 ligand (protein, listed as Homo sapiens)
chain: MLVAGLLLWASLLTGAWPSFPTQDHLPATPRVRLSFKELKATGTAHFFNFLLNTTDYRILLKDEDHDRMYVGSKDYVLSLDLHDINREPLIIHWAASPQRIEECVLSGKDVNGECGNFVRLIQPWNRTHLYVCGTGAYNPMCTYVNRGRRAQATPWTQTQAVRGRGSRATDGALRPMPTAPRQDYIFYLEPERLESGKGKCPYDPKLDTASALINEELYAGVYIDFMGTDAAIFRTLGKQTAMRTDQYNSRWLNDPSFIHAELIPDSAERNDDKLYFFFRERSAEAPQSPAVYARIGRICLNDDGGHCCLVNKWSTFLKARLVCSVPGEDGIETHFDELQDVFVQQTQDVRNPVIYAVFTSSGSVFRGSAVCVYSMADIRMVFNGPFAHKEGPNYQWMPFSGKMPYPRPGTCPGGTFTPSMKSTKDYPDEVINFMRSHPLMYQAVYPLQRRPLVVRTGAPYRLTTIAVDQVDAADGRYEVLFLGTDRGTVQKVIVLPKDDQELEELMLEEVEVFKDPAPVKTMTISSKRQQLYVASAVGVTHLSLHRCQAYGAACADCCLARDPYCAWDGQACSRYTASSKRRSRRQDVRHGNPIRQCRGFNSNANKNAVESVQYGVAGSAAFLECQPRSPQATVKWLFQRDPGDRRREIRAEDRFLRTEQGLLLRALQLSDRGLYSCTATENNFKHVVTRVQLHVLGRDAVHAALFPPLSMSAPPPPGAGPPTPPYQELAQLLAQPEVGLIHQYCQGYWRHVPPSPREAPGAPRSPEPQDQKKPRNRRHHPPDT
modifications: His-Myc tag
notes: Human recombinant full-length His-Myc-tagged SEMA3F, secreted by transfected 293T cells and purified; class 3 semaphorin, NRP-2 ligand
In the case of B1, the “association between mTOR and raptor / rictor” value (mTORC1 and mTORC2) is listed as “inhibited the association between mTOR and both raptor and rictor”, the “mTOR/rictor interaction in 2DAkt transfected cells” value (mTORC1 and mTORC2) is listed as “inhibited mTOR/rictor interaction” and the apoptosis (U87MG cells) is listed as “does not induce apoptosis”. For the same molecule, the “Akt (S473) and S6K phosphorylation” value [1] was “inhibited”, the “inhibition of DFO-induced VEGF promoter activity” value (VEGF promoter; SEMA3F 640 ng/ml pre-treatment 30 minutes, DFO 250 μM, 18 hours) was 43% and the “reduction of hypoxia-induced VEGF promoter activity” value (VEGF promoter; SEMA3F 640 ng/ml, 18 hours culture in 1% O2) was 44%. For the same molecule, the “VEGF promoter activity in 2DAkt transfected cells” value (VEGF promoter; SEMA3F 30 minutes prior to DFO) was “failed to attenuate VEGF promoter activity”.

Reference: patent publication US12397037B2, “Methods and compositions for immunomodulation” (CHILDREN'S MEDICAL CENTER CORPORATION, priority 2014, dated 2025)
